Assay [1] has as its target T1, human PD-L1 expressed on cell surface (human, UniProt Q9NZQ7 19-290). Briefly: cell-based or functional assay.
In assay [2] the target is T2, human B7-H3 expressed on HEK293F cells (human, UniProt Q5ZPR3 29-534).
T2 construct: whole, on cells
T2 sequence (looked up): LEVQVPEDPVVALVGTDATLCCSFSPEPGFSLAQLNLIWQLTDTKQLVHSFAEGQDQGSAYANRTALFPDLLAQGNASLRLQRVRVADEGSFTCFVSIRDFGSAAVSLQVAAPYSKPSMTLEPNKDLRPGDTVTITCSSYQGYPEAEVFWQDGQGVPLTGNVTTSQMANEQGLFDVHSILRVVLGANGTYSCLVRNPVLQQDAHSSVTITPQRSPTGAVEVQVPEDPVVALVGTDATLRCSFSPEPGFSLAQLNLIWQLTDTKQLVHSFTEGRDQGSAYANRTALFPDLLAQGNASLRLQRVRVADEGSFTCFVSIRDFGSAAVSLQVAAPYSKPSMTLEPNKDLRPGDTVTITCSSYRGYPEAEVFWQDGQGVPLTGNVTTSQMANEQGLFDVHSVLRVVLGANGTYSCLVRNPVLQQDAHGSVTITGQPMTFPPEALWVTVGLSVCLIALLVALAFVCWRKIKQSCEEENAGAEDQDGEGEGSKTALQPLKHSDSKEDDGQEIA
Nature of the assay: flow cytometry on transfected HEK293F cells.

Assay [3] concerns the target T3, human PD-L1-Fc fusion protein (Sino Biological Cat #10084-H02H) (human, UniProt Q9NZQ7 19-239).
T3 construct: bought; not shown: Fc part of the bought fusion
Nature of the assay: SPR (Biacore T200), human PD-L1-Fc immobilized, IgG in solution.

Assay [4] deals with T1, human PD-L1 expressed on cell surface. Nature of the assay: flow cytometry on cells expressing human PD-L1 (legend of FIG. 5).
Assay [5] has the same target. Nature of the assay: cell ELISA on HCC827 cells fixed with 4% paraformaldehyde, absorbance at 450 nm. In general terms: ELISA stands for enzyme-linked immunosorbent assay.
Assay [6] has the same target. Nature of the assay: flow cytometry on stable cell line 293T-002 expressing PD-L1; 293T-002 cells expressing PD-L1, flow cytometry. (A flow cytometer gives signals particle by particle.)
Assay [7] concerns the target T3, human PD-L1-Fc fusion protein (Sino …). Briefly: competition ELISA, PD1-Fc (1 ug/mL) coated, biotinylated PD-L1-Fc mixed with antibody, HRP neutravidin; blocked ligand PD1-Fc.

T1 sequence (Q9NZQ7 19-290): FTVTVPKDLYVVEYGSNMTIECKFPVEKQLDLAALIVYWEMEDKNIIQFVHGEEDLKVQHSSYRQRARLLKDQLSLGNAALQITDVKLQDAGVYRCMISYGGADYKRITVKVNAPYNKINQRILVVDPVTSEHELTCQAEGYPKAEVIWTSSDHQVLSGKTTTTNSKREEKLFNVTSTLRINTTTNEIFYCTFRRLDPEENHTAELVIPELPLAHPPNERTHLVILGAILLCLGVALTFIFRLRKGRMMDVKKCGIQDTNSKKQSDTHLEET
T3 sequence (Q9NZQ7 19-239 limits assumed): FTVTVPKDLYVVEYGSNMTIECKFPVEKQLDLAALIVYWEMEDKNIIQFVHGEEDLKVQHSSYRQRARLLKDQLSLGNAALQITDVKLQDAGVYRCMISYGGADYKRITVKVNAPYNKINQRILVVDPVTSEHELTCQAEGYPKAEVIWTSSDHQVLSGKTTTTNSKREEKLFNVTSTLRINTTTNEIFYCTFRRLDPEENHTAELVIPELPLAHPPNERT

B1: TY21421 (antibody, V domains shown)
VH: EVQLVESGGGLVQPGGSLRLSCAASGYSISSGYYWGWIRQAPGKGLEWIGIIYPSGGGTNYAQKFQGRVTISRDNSKNTLYLQLNSLRAEDTAVYYCARGGGLGFDYWGQGTLVTVSS
VL: DIQLTQSPSSLSASVGDRVTITCRASQSIPSFLNWYQQKPGKAPKLLIYAASSLQSGVPSRFSGSGSGTDFTLTISSLQPEDFATYYCQHYISWPRQFTFGQGTKVEIKR
notes: IgG1 (wild type) made from Fab B15041, from HEK293F cells
Regarding B1, the “Relative luminescence units (RLU), Promega PD1/PD-L1 reporter gene assay; EC50” value in assay [1] was determined as 0.39 nM. Besides, the binding result in assay [2] is recorded as “no binding (tested: 100 nM)”. Moreover, the Kd (usually the concentration at which binding is half-saturated) in assay [3] is under 0.01 nM. Also, the values for the concentration for a half-maximal effect (EC50) in assay [4], in assay [5] and in assay [6] were about 1 nM, 0.3 nM and 1.08 nM, respectively. In addition, in assay [7], the “IC50 (read off the curve)” value was about 6 nM.

Values taken from patent US20210122824A1 (ADAGENE, published 2021).
